In patent publication US20180044393A1 (INSERM INSTITUT NATIONAL DE LA SANT ET DE LA RECHERCHE M …, published 2018):
Substitutions are numbered along the chain they refer to. Positions of bridges follow the written chain, without caps; N, C: chain ends. No end group written: not given here. *: point of attachment. 125I = [125I]*

Assays:
Test in all cases: 125I-OxA binding on CHO-S cells expressing the OX1R mutant
OX1R F340A = molecular target: T1, OX1R F340A (human, UniProt O43613 1-425)
T1 construct: site-directed mutant (TM7) stably expressed in CHO-S cells; not shown: YFP from vector pEYFP-N2 fused at the C-terminus
T1 chain: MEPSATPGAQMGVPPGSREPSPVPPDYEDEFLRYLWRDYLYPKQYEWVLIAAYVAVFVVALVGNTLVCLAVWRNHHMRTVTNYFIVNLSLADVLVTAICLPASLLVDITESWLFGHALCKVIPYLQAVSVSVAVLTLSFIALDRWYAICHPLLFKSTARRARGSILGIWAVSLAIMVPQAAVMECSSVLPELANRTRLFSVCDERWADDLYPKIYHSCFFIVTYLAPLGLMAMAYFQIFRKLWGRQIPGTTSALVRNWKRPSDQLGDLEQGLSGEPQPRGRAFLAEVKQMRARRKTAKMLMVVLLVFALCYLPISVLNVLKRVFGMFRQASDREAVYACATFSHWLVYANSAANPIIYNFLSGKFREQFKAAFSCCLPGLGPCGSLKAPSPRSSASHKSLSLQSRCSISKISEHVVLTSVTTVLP
Protocol: (§1) CHO—S cells expressing recombinant native or mutated OX1R were grown as previously described (El Firar et al., 2009) and maintained at 37° C. in a humidified 5% CO₂/air incubator. ¹²⁵I-orexia-A (74 TBq/mmol) was prepared as previously described (El Firar et al., 2009). […] Free peptides were removed by 2 cell washing cycles with PBS. […] Data were analyzed using the GraphPad software (http://www.graphpad.com).
(§2) All residues of OX1R fulfilling this condition were mutated to alanine by site-directed mutagenesis (Table II).

OX1R L320A = molecular target: T2, OX1R L320A (human, UniProt O43613 1-425)
T2 construct: site-directed mutant (TM6) stably expressed in CHO-S cells; not shown: YFP from vector pEYFP-N2 fused at the C-terminus
T2 chain: T1 chain with L320A, A340F
Protocol: as §1, §2

OX1R P101A = molecular target: T3, OX1R P101A (human, UniProt O43613 1-425)
T3 construct: site-directed mutant (TM2) stably expressed in CHO-S cells; not shown: YFP from vector pEYFP-N2 fused at the C-terminus
T3 chain: T1 chain with P101A, A340F
Protocol: as §1, §2

OX1R C99A = molecular target: T4, OX1R C99A (human, UniProt O43613 1-425)
T4 construct: site-directed mutant (TM2) stably expressed in CHO-S cells; not shown: YFP from vector pEYFP-N2 fused at the C-terminus
T4 chain: T1 chain with C99A, A340F
Protocol: as §1, §2

Measured: binding result

QPLPDCCRQKTCSCRLY(125I)ELLHGAGNHAAGILTL (peptide, UniProt O43612 34-66, looked up, disulfide 6-12, 7-14; not fully specified (residue 1, C-terminus), mature; also called OxA) [125I-orexin-A]
binds: all assays above
